Experimental data from paper PMC5913840.

Legend:
[1] = test system: SavR (Staphylococcus aureus (NCTC8325?)); test: ITC; conditions: EMSA: 20 mM Tris-HCl pH 8.0, 100 mM NaCl, 25 C, 20 min; footprinting: same plus 5 mM MgCl2, 1 mM CaCl2, 25 C 30 min; ITC: 20 mM Tris-HCl pH 8.0, 100 mM NaCl …
[2] = molecular target: SavR;SavS (Staphylococcus aureus (NCTC8325?);Staphylococcus aureus (NCTC8325?)) (UniProt Q2FVF8); test: ITC; conditions: EMSA: 20 mM Tris-HCl pH 8.0, 100 mM NaCl, 25 C, 20 min; footprinting: same plus 5 mM MgCl2, 1 mM CaCl2, 25 C 30 min; ITC: 20 mM Tris-HCl pH 8.0, 100 mM NaCl …

Sequence “TACGCTAATTATAGCGTACGCACTTGAGTACGTCAA (double strand) [36-bp savRS operator]” has a Kd [1] of 9.13 µM and a Kd [2] of 26.7 nM.
